Test results from CN114395037A (SHENZHEN PEOPLE HOSPITAL, dated 2022).

Biological target: T1, CRT N+P结构域 (CALR N+P) (UniProt P27797 18-308)
T1 construct: range 18-308; The ELISA and SPR sections say only 'CRT蛋白' or '纯化抗原蛋白'; also called CRT蛋白; 钙网蛋白; not shown: His tag (Ni purification, anti-His WB)
T1 sequence (looked up): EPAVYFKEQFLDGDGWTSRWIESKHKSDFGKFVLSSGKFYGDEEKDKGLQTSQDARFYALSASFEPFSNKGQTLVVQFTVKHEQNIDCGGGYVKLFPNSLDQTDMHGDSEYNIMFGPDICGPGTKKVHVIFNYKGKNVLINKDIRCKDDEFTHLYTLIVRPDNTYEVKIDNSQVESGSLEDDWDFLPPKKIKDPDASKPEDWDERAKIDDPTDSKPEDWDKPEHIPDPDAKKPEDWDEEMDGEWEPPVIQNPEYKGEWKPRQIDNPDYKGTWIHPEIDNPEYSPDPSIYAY
Assay: SPR (Biacore), antigen protein immobilised on the chip, nanobody as analyte

B1: 204纳米抗体 (VHH)
VHH: AVQLVESGGGLVQAGGSLRLSCVASGRPFSLYAVGWFRQAPGKAREFVAAISRSGSTTDHADSVKGRFTVSRDNDANTVSLLMSNLKPEDTAIYYCAAARSTRGYDYWGQGTQVTVSS
notes: Alpaca-derived nanobody from a naive phage display library, expressed in E. coli with an HA tag; not shown: fused HA tag (and a tag for Ni purification, vector PET-14B)
Kd: 0.53 nM
